According to patent US20250215083A1 (JIANGSU HENGRUI PHARMACEUTICALS, published 2025):
Values belong to the binder of their own block, whether it stands above or below them. No end group written: not given here.

Columns and labels:
human CCR8 = molecular target: T1, human CCR8 (human, UniProt P51685 1-355); assay: FACS, CHOK1-human CCR8 cells
T1 construct: on CHOK1-human CCR8 cells
Source text: (§1) To determine whether the GPRC5D/CD3 bispecific antibodies of the present disclosure cross-bind to the GPCRA and GPCRB family members, a flow cytometry assay was used in this test example to measure the capacity of the GPRC5D/CD3 bispecific antibodies to bind to CHOK1-human CCR8 cells expressing CCR8 (the GPCR A family) (constructed with reference to Example 2) and CHOK1-human GIPR cells expressing human GIPR (the GPCR B family) (constructed with reference to Example 2). The specific procedure was as follows: The cells described above were cultured in DMEF/12K culture medium containing 10% FBS, incubated in a 37° C., 5% CO₂ incubator for 2 days, and added to a cell plate at 1×10⁵ cells/well. The plate was centrifuged at 300 g for 5 min and washed once with 1% BSA. The antibodies were serially diluted to 8 concentrations and added to the cell plate at 100 μL/well. The plate was incubated at 4° C. for 1 h and washed once with 1% BSA. […] The plate was washed three times with 1% BSA, PBS was added at 100 μL/well, and plate reading was performed.

human GPRC5D = human GPRC5D (human, UniProt Q9NZD1 1-345); assay: cell-based or functional assay
[1] = molecular target: T2, N-terminal peptide of human GPRC5D (human, biotinylated; made with and without intramolecular disulfide bonds); assay: ELISA, biotinylated peptide on streptavidin
T2 construct: synthesized by GenScript; captured on streptavidin; also called amino-terminal peptide
T2 peptide: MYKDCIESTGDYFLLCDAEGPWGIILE
Source text: (§2) To determine the epitope of GPRC5D to which the GPRC5D/CD3 bispecific antibodies of the present disclosure bind, 4 extracellular domain peptides of human GPRC5D were synthesized, including an amino-terminal peptide (N-terminal peptide), an E2 peptide, an E3 peptide, and an E4 peptide (synthesized by GenScript). The peptides were biotinylated and made into two forms: one lacked intramolecular disulfide bonds and the other included intramolecular disulfide bonds. An Elisa plate (Corning 3590) was coated with streptavidin (sigma, SA101), left to stand at 37° C. for 2 h, and then washed. The non-specific binding sites were blocked with PBS containing 5% skim milk, and the plate was left to stand at 37° C. for 2 h and then washed. The peptides, diluted in PBS containing 1% BSA, were added at 100 μL/well, and the plate was left to stand at 37° C. for 1 h and then washed. Subsequently, the GPRC5D/CD3 antibodies, diluted in PBS containing 1% BSA to 0.003 nM-300 nM, were added at 100 μL/well, and the plate was left to stand at 37° C. for 1 h and then washed. […] TMB (KPL, 5120-0077) was added at 100 μL/well. After 5 min of color development, 1 M H₂SO₄ was added to stop the reaction, and the OD₄₅₀ was measured.

[2] = molecular target: T3, E4 peptide of human GPRC5D (human, also: biotinylated, site not given here, made with and without intramolecular disulfide bonds); assay: peptide ELISA; note: - indicates no detectable binding
T3 peptide: RGNPQFQRQPQWDDC
Source text: as §2

[3] = molecular target: T4, E3 peptide of human GPRC5D (human, biotinylated; made with and without intramolecular disulfide bonds); assay: as above
T4 peptide: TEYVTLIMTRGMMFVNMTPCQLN
Source text: as §2

[4] = molecular target: T5, E2 peptide of human GPRC5D (human, also: biotinylated, site not given here, made with and without intramolecular disulfide bonds); assay: as above
T5 peptide: NQQTAPVRYC
Source text: as §2

human GIPR = molecular target: T6, human GIPR (human, UniProt P48546 22-466); assay: FACS, CHOK1-human GIPR cells
T6 construct: on CHOK1-human GIPR cells
T6 sequence: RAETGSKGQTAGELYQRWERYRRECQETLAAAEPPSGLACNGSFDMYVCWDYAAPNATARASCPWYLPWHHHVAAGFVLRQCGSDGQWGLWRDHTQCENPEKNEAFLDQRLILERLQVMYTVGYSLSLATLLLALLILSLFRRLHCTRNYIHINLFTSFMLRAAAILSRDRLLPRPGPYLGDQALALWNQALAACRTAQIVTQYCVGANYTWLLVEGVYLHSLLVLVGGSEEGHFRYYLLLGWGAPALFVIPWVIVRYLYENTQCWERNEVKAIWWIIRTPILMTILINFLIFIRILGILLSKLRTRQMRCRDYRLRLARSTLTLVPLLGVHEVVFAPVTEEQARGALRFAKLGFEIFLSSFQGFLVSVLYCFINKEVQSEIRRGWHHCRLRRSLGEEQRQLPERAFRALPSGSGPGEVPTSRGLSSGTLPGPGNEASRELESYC
Source text: as §1

- binding result (human CCR8): no binding
- EC50 [1]: 392 pM
- binding result [2]: no binding (tested: 0.003 nM-300 nM)
- binding result [3]: no binding (tested: 0.003 nM-300 nM)
- binding result [4]: no binding (tested: 0.003 nM-300 nM)
- binding result (human GIPR): no binding
B1: F2-0G4S-1 (bispecific antibody)
heavy 1: not shown
light 1: DVVMTQTPLSLSVTPGQPASISCRSSQSLVHSQGNTYLYWYLQKPGQSPKLLIYKVSNRFSGVPDRFSGSGSGTDFTLKISRVEAEDVGVYYCSQSTHVPPLTFGQGTKLEIKRTVAAPSVFIFPPSDEQLKSGTASVVCLLNNFYPREAKVQWKVDNALQSGNSQESVTEQDSKDSTYSLSSTLTLSKADYEKHKVYACEVTHQGLSSPVTKSFNRGEC
heavy 2: not shown
light 2: not shown
notes: formula 2-0G4S
- EC50 ratio (relative to JNJ-64407564), cytotoxic activity against NCI-H929 (human GPRC5D): 0.57
- Lysis rate %, cytotoxic activity against NCI-H929 (human GPRC5D): 91.5%

- binding result (human CCR8): no binding
- binding result (human GIPR): no binding
B2: F2-1 (bispecific antibody)
heavy 1: not shown
light 1: B1 light 1
heavy 2: not shown
light 2: not shown
notes: formula 2

- binding result (human CCR8): no binding
- EC50 [1]: 597 pM
- binding result [2]: no binding (tested: 0.003 nM-300 nM)
- binding result [3]: no binding (tested: 0.003 nM-300 nM)
- binding result [4]: no binding (tested: 0.003 nM-300 nM)
- binding result (human GIPR): no binding
B3: F4-0G4S-1 (bispecific antibody)
heavy 1: not shown
light 1: not shown
heavy 2: EVQLVQSGAEVKKPGASVKVSCKVSGYTFTDYPIHWMRQAPGQGLEWMGYVFPRDGSTKYNEKFRVRVTWTADKSTSTVYMELSSLRSEDTAVYYCSRELTAYWGQGTTVTVSSASTKGPSVFPLAPSSKSTSGGTAALGCLVKDYFPEPVTVSWNSGALTSGVHTFPAVLQSSGLYSLSSVVTVPSSSLGTQTYICNVNHKPSNTKVDKKVEPKSCDKTHTCPPCPAPEAAGGPSVFLFPPKPKDTLMISRTPEVTCVVVDVSHEDPEVKFNWYVDGVEVHNAKTKPREEQYNSTYRVVSVLTVLHQDWLNGKEYKCKVSNKALPAPIEKTISKAKGQPREPQVCTLPPSRDELTKNQVSLSCAVKGFYPSDIAVEWESNGQPENNYKTTPPVLDSDGSFFLVSKLTVDKSRWQQGNVFSCSVMHEALHNHYTQKSLSLSPGK
light 2: DVVLTQSPLSLPVTLGQPASISCKSSQSLLHSSGKTYLNWLLQRPGQSPRRLIYLVSKLDSGVPDRFSGSGSGTDFTLKISRVEAEDVGVYYCAQGTHFPRTFGGGTKVEIKRTVAAPSVFIFPPSDEQLKSGTASVVCLLNNFYPREAKVQWKVDNALQSGNSQESVTEQDSKDSTYSLSSTLTLSKADYEKHKVYACEVTHQGLSSPVTKSFNRGEC
notes: formula 4-0G4S
- EC50 ratio (relative to JNJ-64407564), cytotoxic activity against NCI-H929 (human GPRC5D): 0.09
- Lysis rate %, cytotoxic activity against NCI-H929 (human GPRC5D): 136%

- binding result (human CCR8): no binding
- binding result (human GIPR): no binding
B4: F4-6 (bispecific antibody)
heavy 1: not shown
light 1: not shown
heavy 2: B3 heavy 2
light 2: B3 light 2
notes: formula 4
